The chains are these.
B1: CPEB3 Ribozyme (parent)
chain: GGGGGCCACAGCAGAAGCGUUCACGUCGCGGCCCCUGUCAGAUUCUGGUGAAUCUGCGAAUUCUGCUGU

Consider 39 variants from the RNAGym collection of RNA variant scans (doi:10.7554/elife.80360).

The variants in this series derive from B1. As to the kind of experiment: self-cleavage, relative activity (ratio to wild type); higher = more cleavage; co-transcriptional.
Consider GGGGGCCACAGCAGAAGCGUUCACGUCGCGGCCCCUGUCAGAUUCUGGUGAAUCGGCGAAUUCUGCGGU, for which the self-cleavage was found to be 0.826.

On to GGGGGCCACAGCAGAAGCGUUCACGUCGCGGCCCCUGUCAGAUUCUGGUGAAUCUUCGUAUUCUGCUGU, for which the self-cleavage came to 0.672. As to GGGGGCCACAGCAGAAGCGUUCACGUCGCGGCCCCUGUCAGAUUCUGGUGAAUCUUCGCAUUCUGCUGU, the self-cleavage was determined as 0.514.

Regarding GGGGGCCACAGCAGAAGCGUUCACGUCGCGGCCCCUGUCAGAUUCUGGUGAAUCGGCGAAUGCUGCUGU, the self-cleavage worked out at 0.381. On to GGGGGCCACAGCAGAAGCGUUCACGUCGCGGCCCCUGUCAGAUUCUGGUGAAUCUUCGAAUUCUGGUGU, for which the self-cleavage worked out at 0.552. As for GGGGGCCACAGCAGAAGCGUUCACGUCGCGGCCCCUGUCAGAUUCUGGUGAAUCUUCGAAUUCUGUUGU, the self-cleavage is 0.872.

In the case of GGGGGCCACAGCAGAAGCGUUCACGUCGCGGCCCCUGUCAGAUUCUGGUGAAUCUACGAAGUCUGCUGU, the self-cleavage was determined as 0.676. GGGGGCCACAGCAGAAGCGUUCACGUCGCGGCCCCUGUCAGAUUCUGGUGAAUCUACGAACUCUGCUGU: the self-cleavage worked out at 0.617. Turning to GGGGGCCACAGCAGAAGCGUUCACGUCGCGGCCCCUGUCAGAUUCUGGUGAAUCUCCGAAUUCGGCUGU, the self-cleavage stood at 0.533. For GGGGGCCACAGCAGAAGCGUUCACGUCGCGGCCCCUGUCAGAUUCUGGUGAAUCUUCGAACUCUGCUGU, the self-cleavage was 0.383. With GGGGGCCACAGCAGAAGCGUUCACGUCGCGGCCCCUGUCAGAUUCUGGUGAAUCUUCGAAGUCUGCUGU, the self-cleavage amounted to 0.548. For GGGGGCCACAGCAGAAGCGUUCACGUCGCGGCCCCUGUCAGAUUCUGGUGAAUCUGAGAAUUCUGCCGU, the self-cleavage was found to be 0.25. For GGGGGCCACAGCAGAAGCGUUCACGUCGCGGCCCCUGUCAGAUUCUGGUGAAUCUGAGAAUUCUGCAGU, the self-cleavage was found to be 0.275.

GGGGGCCACAGCAGAAGCGUUCACGUCGCGGCCCCUGUCAGAUUCUGGUGAAUCUGAGAAUUCUGCUGC: the self-cleavage was 0.499. For the variant GGGGGCCACAGCAGAAGCGUUCACGUCGCGGCCCCUGUCAGAUUCUGGUGAAUCUUCGAAUUCUGCAGU, the self-cleavage was found to be 0.943. Take GGGGGCCACAGCAGAAGCGUUCACGUCGCGGCCCCUGUCAGAUUCUGGUGAAUCUUCGAAUUCUGCCGU: the self-cleavage was 0.894. For the variant GGGGGCCACAGCAGAAGCGUUCACGUCGCGGCCCCUGUCAGAUUCUGGUGAAUCUUCGAAUUCUGCGGU, the self-cleavage is 0.945. With GGGGGCCACAGCAGAAGCGUUCACGUCGCGGCCCCUGUCAGAUUCUGGUGAAUCUACGAAUUCCGCUGU the figure was 0.777; with GGGGGCCACAGCAGAAGCGUUCACGUCGCGGCCCCUGUCAGAUUCUGGUGAAUCUACGAAUUCGGCUGU, 0.828; with GGGGGCCACAGCAGAAGCGUUCACGUCGCGGCCCCUGUCAGAUUCUGGUGAAUCUACGAAUUCUGCUGA, 1.03.

On to GGGGGCCACAGCAGAAGCGUUCACGUCGCGGCCCCUGUCAGAUUCUGGUGAAUCGGCUAAUUCUGCUGU, for which the self-cleavage was found to be 0.946. For GGGGGCCACAGCAGAAGCGUUCACGUCGCGGCCCCUGUCAGAUUCUGGUGAAUCUCCGACUUCUGCUGU, the self-cleavage was 0.295. For GGGGGCCACAGCAGAAGCGUUCACGUCGCGGCCCCUGUCAGAUUCUGGUGAAUCUGGGACUUCUGCUGU, the self-cleavage was 0.258. In the case of GGGGGCCACAGCAGAAGCGUUCACGUCGCGGCCCCUGUCAGAUUCUGGUGAAUCUGGGAAUCCUGCUGU, the self-cleavage amounted to 0.288.

With GGGGGCCACAGCAGAAGCGUUCACGUCGCGGCCCCUGUCAGAUUCUGGUGAAUCUGGGAAUGCUGCUGU, the self-cleavage was found to be 0.448. For GGGGGCCACAGCAGAAGCGUUCACGUCGCGGCCCCUGUCAGAUUCUGGUGAAUCUGAGAAUUCUUCUGU, the self-cleavage is 0.399. With GGGGGCCACAGCAGAAGCGUUCACGUCGCGGCCCCUGUCAGAUUCUGGUGAAUCUGAGAAUUCUCCUGU, the self-cleavage stood at 0.4.

As for GGGGGCCACAGCAGAAGCGUUCACGUCGCGGCCCCUGUCAGAUUCUGGUGAAUCGGCGAAUUCUGCUUU, the self-cleavage is 0.874.

In the case of GGGGGCCACAGCAGAAGCGUUCACGUCGCGGCCCCUGUCAGAUUCUGGUGAAUCUGAGAAAUCUGCUGU, the self-cleavage stood at 0.428. With GGGGGCCACAGCAGAAGCGUUCACGUCGCGGCCCCUGUCAGAUUCUGGUGAAUCUGAGAAGUCUGCUGU, the self-cleavage worked out at 0.402. As to GGGGGCCACAGCAGAAGCGUUCACGUCGCGGCCCCUGUCAGAUUCUGGUGAAUCUGAGAAUUCGGCUGU, the self-cleavage turned out to be 0.384. For the variant GGGGGCCACAGCAGAAGCGUUCACGUCGCGGCCCCUGUCAGAUUCUGGUGAAUCUUCGAAUUCUUCUGU, the self-cleavage amounted to 0.468. Consider GGGGGCCACAGCAGAAGCGUUCACGUCGCGGCCCCUGUCAGAUUCUGGUGAAUCUUCGAAUUCUACUGU, for which the self-cleavage worked out at 0.47. Turning to GGGGGCCACAGCAGAAGCGUUCACGUCGCGGCCCCUGUCAGAUUCUGGUGAAUCUUCGACUUCUGCUGU, the self-cleavage stood at 0.368. Consider GGGGGCCACAGCAGAAGCGUUCACGUCGCGGCCCCUGUCAGAUUCUGGUGAAUCUGAGAAUUCUGCUGU, for which the self-cleavage worked out at 0.346.

For the variant GGGGGCCACAGCAGAAGCGUUCACGUCGCGGCCCCUGUCAGAUUCUGGUGAAUCUGGGAAUUCUGCUGU, the self-cleavage is 0.354. Turning to GGGGGCCACAGCAGAAGCGUUCACGUCGCGGCCCCUGUCAGAUUCUGGUGAAUCUGGGAAUUCUGUUGU, the self-cleavage is 0.333. On to GGGGGCCACAGCAGAAGCGUUCACGUCGCGGCCCCUGUCAGAUUCUGGUGAAUCUGGGAAUUCUGGUGU, for which the self-cleavage was 0.39. As for GGGGGCCACAGCAGAAGCGUUCACGUCGCGGCCCCUGUCAGAUUCUGGUGAAUCUGGGCAUUCUGCUGU, the self-cleavage came to 0.3.
